Source: PMC10275983 (Nature Communications, 2023)
No end group written: not given here.

Target: S1-RBD (ACROBiosystems SPD-C82E9) (SARS-CoV-2 (Wuhan-Hu-1 strain), UniProt P0DTC2 319-541)
Experiment: SPR
Details: both partners purified

| Binder | binding result |
| --- | --- |
| ACEDNDWVYCSTCA (not fully specified (bridges); also: bicyclic peptide, scaffold not named) [E3 Bicycle (exemplar of epitope group 3)] | binds |
| ACANPDNPVCRFYCA (not fully specified (bridges); also: bicyclic peptide, scaffold not named) [E5 Bicycle (canonical exemplar of epitope group 5)] | binds |
| ACEYVGPMCYRLYCA (not fully specified (bridges); also: Bicycle) [E1 Bicycle (exemplar of epitope group 1)] | binds |
| ACPYVAGRGTCLLCA (not fully specified (bridges); cysteine pairing not given here) [E2 Bicycle (canonical exemplar of epitope group 2)] | binds |
